Target: T1, Dishevelled (Dsh) protein, Drosophila, P51140
T1 chain: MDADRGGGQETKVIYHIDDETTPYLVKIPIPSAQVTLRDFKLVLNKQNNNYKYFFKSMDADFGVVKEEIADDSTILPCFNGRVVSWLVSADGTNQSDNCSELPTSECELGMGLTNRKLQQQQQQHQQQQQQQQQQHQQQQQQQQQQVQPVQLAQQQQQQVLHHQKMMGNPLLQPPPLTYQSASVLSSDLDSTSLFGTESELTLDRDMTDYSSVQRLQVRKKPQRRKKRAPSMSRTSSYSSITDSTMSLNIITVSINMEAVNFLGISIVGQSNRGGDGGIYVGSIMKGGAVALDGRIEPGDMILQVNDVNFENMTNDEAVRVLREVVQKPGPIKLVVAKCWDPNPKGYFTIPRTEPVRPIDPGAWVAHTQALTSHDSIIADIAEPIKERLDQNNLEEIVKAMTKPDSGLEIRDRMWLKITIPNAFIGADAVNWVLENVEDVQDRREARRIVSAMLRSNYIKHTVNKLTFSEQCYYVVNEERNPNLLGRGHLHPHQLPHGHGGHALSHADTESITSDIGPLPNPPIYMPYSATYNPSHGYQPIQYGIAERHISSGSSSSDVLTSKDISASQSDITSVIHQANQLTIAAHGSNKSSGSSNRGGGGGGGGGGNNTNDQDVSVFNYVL

B1: Drosophila PAR-1 (dPAR-1), the Dishevelled-associated kinase (protein)
chain: MSTAMRTTLQSVPEALPADSVSNGTASNVAAPAAPVSSATNAVPPLAAVSSTTATYATNSISTSSHSVKDQQQQQQQQQHDSANANIVSLPPTTTPVANTNTMMPIVTSSNSATSNSTAATPTPASGAAATGGVGSVSQGPATVSASAANTNHSHQHSHQHHHHVANNMTTDGARLSSNNSAVVASSAINHHHHHTPGSGVAPTVNKNVLSTHSAHPSAIKQRTSSAKGSPNMQMRSSAPMRWRATEEHIGKYKLIKTIGKGNFAKVKLAKHLPTGKEVAIKIIDKTQLNPGSLQKLFREVRIMKMLDHPNIVKLFQVIETEKTLYLIMEYASGGEVFDYLVLHGRMKEKEARVKFRQIVSAVQYCHQKRIIHRDLKAENLLLDSELNIKIADFGFSNEFTPGSKLDTFCGSPPYAAPELFQGKKYDGPEVDVWSLGVILYTLVSGSLPFDGSTLRELRERVLRGKYRIPFYMSTDCENLLRKFLVLNPAKRASLETIMGDKWMNMGFEEDELKPYIEPKADLADPKRIEALVAMGYNRSEIEASLSQVRYDDVFATYLLLGRKSTDPESDGSRSGSSLSLRNISGNDAGANAGSASVQSPTHRGVHRSISASSTKPSRRASSGAETLRVGPTNAAATVAAATGAVGAVNPSNNYNAAGSAADRASVGSNFKRQNTIDSATIKENTARLAAQNQRPASATQKMLTTADTTLNSPAKPRTATKYDPTNGNRTVSGTSGIIPRRSTTLYEKTSSTEKTNVIPAETKMASAVKSSRHFPRNVPSRSTFHSGQTRARNNTALEYSGTSGASGDSSHPGRMSFFSKLSSRFSKRPNQ
in-gel in vitro kinase assay: these bands phosphorylated the Dsh substrate impregnated in the gel
